Source: the RNAGym collection of RNA variant scans (doi:10.1093/nar/gkz1192)

B1: CPEB3 Ribozyme (parent)
chain: UAACAGGGGGCCACAGCAGAAGCGUUCACGUCGCAGCCCCUGUCAGAUUCUGGUGAAUCUGCGAAUUCUGCUGUAUAUCUC

Variants of: B1
Assay: self-cleavage, relative activity (ratio to wild type); higher = more cleavage; in vitro, sequencing
Procedure, shortened: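 After error-prone PCR and barcoding, CPEB3 ribozyme mutant libraries were transcribed with T7 RNA polymerase at 37°C for 5 hours, then given 15 min with DNase I before an EDTA stop, and they cleaved during both steps. Reverse transcription with template switching preceded Illumina sequencing. Relative activity divides a variant's cleaved/total read fraction by the unmutated ribozyme's. At least 5 reads were required per variant, and three batches were averaged.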

Variant | self-cleavage
G33A A77U | 0.23
G33A A77G | 0.18
C32G A77U | 0.2
C32G U51A | 0.04
G33A C62A | 0.37
G33A C62U | 0.11
C32A G63A | 0.4
C32A G73C | 0.17
C32A G73A | 0.49
C32A U69A | 0.18
C32A U69C | 0.07
C32G A57G | 0.1
C32G C44U | 0.12
C32U G42A | 0.19
G33A C39U | 0.16
C32A A77U | 0.33
C32U G63A | 0.46
C32G C40U | 0.22
C32G G73A | 0.22
C32G A45C | 0.12
C32G A45U | 0.08
G33A A65G | 0.35
G33A A65C | 0.11
C32U U43C | 0.25

Variant | self-cleavage
C32U U43A | 0.43
C32U A65G | 0.21
C32U A65U | 0.13
C32A U72A | 0.12
C32A U72C | 0.17
C32A U72G | 0.19
C32U A47U | 0.32
C32U A47G | 0.19
C32U A45G | 0.15
C32U A45C | 0.15
C32U A45U | 0.3
C32A U80A | 0.37
C32A U80C | 0.69
G33A C50G | 0.22
G33A C50U | 0.1
C32U G61C | 0.18
C32U G70A | 0.21
C32A C68U | 0.22
C32G U67C | 0.09
C32U U69C | 0.17
C32U U69A | 0.23
C32U C34U | 0.19
C32U U72A | 0.11
C32U U72C | 0.4

Variant | self-cleavage
C32U C81U | 0.37
C32U C38U | 0.08
C32G U69C | 0.44
C32U U49C | 0.21
C32U U49A | 0.15
C32U U58C | 0.35
C32U U58A | 0.14
C32U U66C | 0.22
C32U U66A | 0.22
C32U A64U | 0.13
C32U A64G | 0.3
C32G U72C | 0.11
C32U G46A | 0.15
G33A A56U | 0.18
G33A A56G | 0.28
G33A A57G | 0.25
G33A A57C | 0.11
C32U C79A | 0.22
G33A A45U | 0.39
G33A A45G | 0.24
G33A A45C | 0.22
C32A U67A | 0.13
G33A A47G | 0.4
C32G U41G | 0.11

Variant | self-cleavage
C32G U41A | 0.32
C32A U54A | 0.29
C32A U54C | 0.32
C32U A56U | 0.19
C32U A56G | 0.17
C32G U49C | 0.11
C32G G63A | 0.14
C32U U67C | 0.19
C32A G46A | 0.11
C32U G53A | 0.27
C32A U66C | 0.16
C32G U80A | 0.1
C32G U80C | 0.08
C32U U51C | 0.16
C32U U51A | 0.19
C32U U51G | 0.22
C32U A77C | 0.15
G33A C59U | 0.24
G33A A64U | 0.28
G33A A64G | 0.16
C32A U48G | 0.24
C32A U48C | 0.22
C32A U51C | 0.29
C32A U51G | 0.31

Variant | self-cleavage
C32A U51A | 0.24
C32A C59A | 0.15
C32U A57C | 0.13
C32U A57U | 0.13
C32U A57G | 0.22
C32A U76C | 0.25
C32U U76C | 0.2
C32U U76A | 0.18
C32U A75G | 0.11
C32U U74C | 0.38
C32U U74G | 0.09
C32G U43C | 0.37
C32G C37U | 0.31
C32A G55A | 0.5
C32A C34G | 0.44
C32A U78C | 0.2
C32U G52C | 0.2
G33A A75U | 0.11
C32G A56G | 0.12
C32A U60A | 0.17
C32U U41A | 0.27
C32U U41C | 0.26
G33A C40G | 0.2
G33A C40A | 0.19

Variant | self-cleavage
G33A C40U | 0.38
C32U G55A | 0.14
C32A G52A | 0.29
C32A G52U | 0.13
C32A G52C | 0.1
C32A A75U | 0.16
C32U U80C | 0.44
C32U U60C | 0.18
C32U U60A | 0.21
C32U U60G | 0.4
C32A G61A | 0.19
C32G U54A | 0.19
C32A U41A | 0.27
C32A U41C | 0.36
C32A U58A | 0.37
C32U U48C | 0.13
C32A C38G | 0.18
C32A C38A | 0.25
C32U C68U | 0.2
C32U C68G | 0.13
C32A U49C | 0.15
C32A U49A | 0.11
C32U C39A | 0.15
G33A | 0.28

Variant | self-cleavage
C32A G70U | 0.12
G33A A35U | 0.21
G33A A35G | 0.39
C32U | 0.28
C32G | 0.23
C32A U74C | 0.22
C32A C62G | 0.13
C32U A35U | 0.32
C32U A35C | 0.18
C32U A35G | 0.18
G33A C79A | 0.23
C32A U43A | 0.5
C32A U43C | 0.35
C32U U54A | 0.2
C32U U54C | 0.33
C32G U78C | 0.09
G33A C68G | 0.11
G33A C68U | 0.19
C32U U78C | 0.25
C32A C40G | 0.43
C32A C40U | 0.2
C32A C40A | 0.11
C32U C59U | 0.12
